Source: US20230212319A1, “NOVEL ANTIGEN BINDING DOMAINS AND SYNTHETIC ANTIGEN RECEPTORS INCORPORATING THE SAME” (University of Southern California, priority 2020, published 2023)

B1: 22183 (protein)
chain: MALPVTALLLPLALLLHAARPACQVQLQESGAGLLKPSETLSLTCAVYGGSFSAYNWNWIRQPPGKGLEWIGEINHRGDTAYNPSLKSRVTISVDTSKNQFSLNLTSVTAADTAVYYCAARGYSYGWPPGYISDAFDIWGQGTQVTVSSGTGGGGSGGGGSGGGGSEFDIQMTQSPSSLSASVGDRVTITCKASDHINNWLAWYQQKPGQAPKLLIYGATTLETGVPSRFSGSGSGTDYTLTISSLQPEDFATYYCQQSWNTPWTFGQGTKLEIKRLEDLKNVFPPEVAVFEPSEAEISHTQKATLVCLATGFYPDHVELSWWVNGKEVHSGVCTDPQPLKEQPALNDSRYCLSSRLRVSATFWQNPRNHFRCQVQFYGLSENDEWTQDRAKPVTQIVSAEAWGRADCGFTSESYQQGVLSATILYEILLGKATLYAVLVSALVLMAMVKRKDSRGRAKRSGSGATNFSLLKQAGDVEENPGPTSMDWIWRILFLVGAATGAHSFEQVQLQQPGAELVKPGASVKMSCKASGYAFSSYWINWMKQKPGQGLEWIGQIYPGDGDTNYNGKFKGRATLTADTSSSTAYMQLSSLTSEDSAVYFCARSITTVVGCAMDYWGQGTSVTVSSTRIQNPDPAVYQLRDSKSSDKSVCLFTDFDSQTNVSQSKDSDVYITDKCVLDMRSMDFKSNSAVAWSNKSDFACANAFNNSIIPEDTFFPSPESSCDVKLVEKSFETDTNLNFQNLSVIGFRILLLKVAGFNLLMTLRLWSSRAKRSGSGVKQTLNFDLLKLAGDVESNPGPSRGHMTEYKPTVRLATRDDVPRAVRTLAAAFADYPATRHTVDPDRHIERVTELQELFLTRVGLDIGKVWVADDGAAVAVWTTPESVEAGAVFAEIGPRMAELSGSRLAAQQQMEGLLAPHRPKEPAWFLATVGVSPDHQGKGLGSAVVLPGVEAAERAGVPAFLETSAPRNLPFYERLGFTVTADVEVPEGPRTWCMTRKPGA
B2: 22218 (protein)
chain: MALPVTALLLPLALLLHAARPACQDKLTQWPKWLEGTGGGGSGGGGSGGGGSEFDIQMTQSPSSLSASVGDRVTITCKASDHINNWLAWYQQKPGQAPKLLIYGATTLETGVPSRFSGSGSGTDYTLTISSLQPEDFATYYCQQSWNTPWTFGQGTKLEIKRLEDLKNVFPPEVAVFEPSKAEIAHTQKATLVCLATGFYPDHVELSWWVNGKEVHSGVCTDPQPLKEQPALNDSRYCLSSRLRVSATFWQNPRNHFRCQVQFYGLSENDEWTQDRAKPVTQIVSAEAWGRADCGITSASYHQGVLSATILYEILLGKATLYAVLVSALVLMAMVKRKDSRGRAKRSGSGATNFSLLKQAGDVEENPGPTSATMDWIWRILFLVGAATGAHSGPQVQLQESGGGLAQAGGSLRLSCAASGRTFSMGWFRQAPGKEREFVAAITYSGGSPYYASSVRGRFTISRDNAKNTVYLQMNSLKPEDTAVYYCAANPTYGSDWNAENWGQGTQVTVSSGSGGGGSGGGGSGGGGSFEQVQLQQPGAELVKPGASVKMSCKASGYAFSSYWINWMKQKPGQGLEWIGQIYPGDGDTNYNGKFKGRATLTADTSSSTAYMQLSSLTSEDSAVYFCARSITTVVGCAMDYWGQGTSVTVSSTRIQNPDPAVYQLRDSKSSDKSVCLFTDFDSQTNVSQSKDSDVYITDKCVLDMRSMDFKSNSAVAWSNKSDFACANAFNNSIIPEDTFFPSSDVPCDVKLVEKSFETDTNLNFQNLSVIGFRILLLKVAGFNLLMTLRLWSSRAKRSGSGVKQTLNFDLLKLAGDVESNPGPSRGHMTEYKPTVRLATRDDVPRAVRTLAAAFADYPATRHTVDPDRHIERVTELQELFLTRVGLDIGKVWVADDGAAVAVWTTPESVEAGAVFAEIGPRMAELSGSRLAAQQQMEGLLAPHRPKEPAWFLATVGVSPDHQGKGLGSAVVLPGVEAAERAGVPAFLETSAPRNLPFYERLGFTVTADVEVPEGPRTWCMTRKPGA
B3: 22219 (protein)
chain: MALPVTALLLPLALLLHAARPDIQMTQSPSSLSASVGDRVTITCKASDHINNWLAWYQQKPGQAPKLLIYGATTLETGVPSRFSGSGSGTDYTLTISSLQPEDFATYYCQQSWNTPWTFGQGTKLEIKRLEDLKNVFPPEVAVFEPSEAEISHTQKATLVCLATGFYPDHVELSWWVNGKEVHSGVCTDPQPLKEQPALNDSRYCLSSRLRVSATFWQNPRNHFRCQVQFYGLSENDEWTQDRAKPVTQIVSAEAWGRADCGFTSESYQQGVLSATILYEILLGKATLYAVLVSALVLMAMVKRKDSRGRAKRSGSGATNFSLLKQAGDVEENPGPTSATMDWIWRILFLVGAATGAHSGPSACPYSNPSLCSGSGGGGSGGGGSGGGGSFEQVQLQQPGAELVKPGASVKMSCKASGYAFSSYWINWMKQKPGQGLEWIGQIYPGDGDTNYNGKFKGRATLTADTSSSTAYMQLSSLTSEDSAVYFCARSITTVVGCAMDYWGQGTSVTVSSTRIQNPDPAVYQLRDSKSSDKSVCLFTDFDSQTNVSQSKDSDVYITDKCVLDMRSMDFKSNSAVAWSNKSDFACANAFNNSIIPEDTFFPSPESSCDVKLVEKSFETDTNLNFQNLSVIGFRILLLKVAGFNLLMTLRLWSSRAKRSGSGVKQTLNFDLLKLAGDVESNPGPSRGHMTEYKPTVRLATRDDVPRAVRTLAAAFADYPATRHTVDPDRHIERVTELQELFLTRVGLDIGKVWVADDGAAVAVWTTPESVEAGAVFAEIGPRMAELSGSRLAAQQQMEGLLAPHRPKEPAWFLATVGVSPDHQGKGLGSAVVLPGVEAAERAGVPAFLETSAPRNLPFYERLGFTVTADVEVPEGPRTWCMTRKPGA
B4: 22194 (protein)
chain: MALPVTALLLPLALLLHAARPQLQLQESGPGLVKPSETLSLTCTVSGDSISSGDYYWGWIRQPPGKGLEWIGHIYYSGVTYYNPSLKSRVTISVDTSRNQFSLKLSSVTAADTAVYYCTREDSSNWRSRGQGTLVTVSSLEGQPKANPTVTLFPPSSEELQANKATLVCLISDFYPGAVTVAWKADGSPVKAGVETTKPSKQSNNKYAASSYLSLTPEQWKSHRSYSCQVTHEGSTVEKTVAPTECSPIKTDVITMDPKDNCSKDANDTLLLQLTNTSAYYMYLLLLLKSVVYFAIITCCLLRRTAFCCNGEKSRAKRSGSGATNFSLLKQAGDVEENPGPTSMDWIWRILFLVGAATGAHSFEYAKEMRNAYWEIALLPNLTNQQKRAPIRKLYDDPSQSSELLSEAKKLNDSQTRASTKGPSVFPLAPSSKSTSGGTAALGCLVKDYFPEPVTVSWNSGALTSGVHTFPAVLQSSGLYSLSSVVTVPSSSLGTQTYICNVNHKPSNTKVDKRVEPKSCEVKTDSTDHVKPKETENTKQPSKSCHKPKAIVHTEKVNMMSLTVLGLRMLFAKTVAVNFLLTAKLFFLRAKRSGSGVKQTLNFDLLKLAGDVESNPGPSRGHMTEYKPTVRLATRDDVPRAVRTLAAAFADYPATRHTVDPDRHIERVTELQELFLTRVGLDIGKVWVADDGAAVAVWTTPESVEAGAVFAEIGPRMAELSGSRLAAQQQMEGLLAPHRPKEPAWFLATVGVSPDHQGKGLGSAVVLPGVEAAERAGVPAFLETSAPRNLPFYERLGFTVTADVEVPEGPRTWCMTRKPGA

The molecules below were run on RAJI cells (assay: JNG assay, co-culture with RAJI cells). Conditions: JNG cells expressing construct, co-culture with Raji.
Type: cell-based
Summary of the method: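 Jurkat-NFAT-GFP (JNG) cells stably expressing SAR constructs via lentiviral transduction and puromycin/blasticidin selection were cocultured with target cells at E:T ~1:2 for ~4–18 h. NFAT-driven GFP was measured by FACS versus parental JNG cells; scores +/- to 5+ denote ~5–50% GFP-positive cells.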
In the case of B1, the “NFAT-GFP ASSAY: Raji” value is reported as 5+ (refer to approximately 5%, 10%, 20%, 30%, 40% and 50% GFP positive cells).
In the case of B2, the “NFAT-GFP ASSAY: Raji” value is reported as “Raji (3+) (refer to approximately 5%, 10%, 20%, 30%, 40% and 50% GFP positive cells)”.
For B3, the “NFAT-GFP ASSAY: Raji” value was “Raji (+/-) (refer to approximately 5%, 10%, 20%, 30%, 40% and 50% GFP positive cells)”.
With B4 the “NFAT-GFP ASSAY: Raji” value was 4+ (refer to approximately 5%, 10%, 20%, 30%, 40% and 50% GFP positive cells).
